Results: the DeepSol protein solubility set

Assay: soluble on expression in E. coli; label from the status in PepcDB or PDB records

Sequence | soluble on expression in E. coli
MGSDKIHHHHHHAEAGVFSDVPTSHWSYPAIKDLAGKNIISGYGNGKFGFGDVATREQVAALIYRALLPNKQGGTFSNDGARYVLQDGSTLNNPYRDIRSGSTLFPEEVLTLTKLGVFNGDGNGGFRPKDSVSRAEMAQIIKNAFQVSAKQKHTFNDVPDGFWAEGAISAVQSNGIASGTGDGKFEPAKTVTREQYAQFLYNALQYKKPAVAVQDTGDAALLAAFKDEVQKRINAYETNITLPYKTTNSNTKEVMNTLFNAYKEVASKNEYTNNNRSNVSYGLSGSPGNYTFTLKITYRETKEQTEYVMKQAKAIVSSITQVGMDDHEKVKAIHDYVVKHVSYDTSYKAYTAYEALVNRSAVCQGYALLTYQLLKEAGIENHFVVGTGDGQPHAWNLVKIENKWYHLDTTFDDPVPDEQGRVTYSYFNLSDEQIARNHEWNRGDYPQATTNYYSTLTNKIAAGGTKTSAYQQILKDTKLNYLGNEYIANNYNEFKNKMQQRYNEKSPKIEILYKQSMDGALQDVKKAIGEIGYPQGANRVSYKAEPYNAKEGYSLVTITFM | not soluble
MGSDKIHHHHHHAGSCTGNFEEYNTNQFQIHEADPSTLMKSMIETIVNIQQNDSQMMDQMVGQLGGYLTCANVWSGTNFGTFNQSDAWNAGPWNTNFEKIYGNFFQIQEATNESGHYYAFARMIRAITMLRVADCYGPMPYSQVKKGNFYVAYDTEEQVYKNIMEDFASAANVLYNYYKDTNGNAPLASNDPVFSGNYANWARLANSMRLRVAIRISTAYPEMAKENAEAAASHEAGLIEANNDNAMMDCGSQTNPYQLAAVSWGDLRVNANIVDYMNGYGDPRMSKYFNHSTFTGHTQEYVGMRSGEDGFAKSDVAGYSIPAITGTSKLLVFCAAETAFLRAEGKLKNWSVGNKSAKEYYEEGIKLSMEQYGTTMPDNYLTNTEKPTVSHNNDPRGHAYTISNTVAVAWNDNNEEENLQRIITQKWIANYPLGLEAWAEYRRTGYPELYPCIDNLSPSGVDSKRGMRRLRFPYTEVQNNHSNYQQGVSYLKNGGPDNEATDLSWGKTN | not soluble
MGSDKIHHHHHHAHTRAIDNIANSGDMVTMSGTVKLYAKTAQDGGVVNTLTLQVSDFTGLDTGTGSKTVEISGAATYIEVEGNIDGSATKTDDVNSRQGGVTSDAVRVVGGAAIVTGGSTSTCSIEVAPEMARVEVKGDLGSSFTNLAELKVKGIYLNNVKQKRADAAVVKTTKASAPDWTTAYTAGGTKSNLYNTFIGTPITKFDSGKADGYNFFPQDFHIASLSAAATTKEEAAKYHPHVIMEVEYKMNGVGALSKTGWLNVVALKDNTSSSYIGEFANGKVYQLDLADIKKIMDVPVPPVTVDPDPDAVNVDVTVTVKGWELVFIKPEV | not soluble
MGSDKIHHHHHHAKSVATTEHLKRYTEAISHDSCQGRKPFSEGADRAVNYIAHQMKEVGLKPINGDSYFQQVNIISSRTRCPDPMVLKTPKGKIPLDWLEGYTAFSARIEPEIDIDNAELVFAGYGIVAPEYGKNDFEGIENPQDKVAVVIVNDPGLGSDNTDYFNGDIMTYYGRWMYKFEEGARQGLKGVLIIHEDRGAGYPWSVVRASAQSKMYVDSDSDAYHCPLNGWIQFNAAKQLLADNGYDIDQLIEQSKSPDFKPISLKSTVTVSMRNTFDRQQSPNVIGYIPGSGNTDESVIYLGHWDHLGYGAPINGDSIINGATDNAVAIAWMLEMARCFNVLKEKPRRNIVFLSPTCEETGFLGTKYYVEHPLFPIDKIAAVINLDVFPLWGENNDVTITGYGNSELDDTLAELAKKYNRYIMPDPDAYNGMFYRSDHFPFVQKGIPAMFAKGWNDNRKQGKEWAKEHIAHYWAETYHKPTDQTHPDTDDYSGLLQEVQLFFDLGYKLAQDTGYPKWKPKSEFANVLKR | not soluble
MGSDKIHHHHHHAQNFSDYFEDKTLRADYIFTGDAKKQEVYLDELSSLPQWAGRKHHLAELPLAGNGEITMKDKATGETIYRTSFSSLFQEWVSEEEASRIKRGFENSFLLPYPKKEAVVTISLKDVYHKVNASLTHEIIPNDILIHQRGTNHITPHRYLLQNGNAADCIDVAIMAEGYTEKEMDIFYKDAQTACDALFSHEPFKKLKDKFNIVAVASPSEDSGVSIPGQGKWKSTAVSSHFNTFYSDRYLTTSRVKSIHNWLAGIPYEHIIILANTDTYGGGGIYNSYTLTTAHHPDFQPVVVHEFGHSFGGLADEYAYTETPSPQYPYEVEPWEPNITTLIDFDSKWKDMIPEGTAIPTPVATENADLYTKVGVYEGAGYTQKGLYRPTTECRMKINEAPAFCPVCQRALERLINFYTAK | not soluble
MGSDKIHHHHHHAQRGKRAMNRIDREVQETVFIPKGTWMAGGTVSYSEHDEGNLNFLVLKNVEGKGYNFGVSPYVGYFFRNNISAGMRFAYHRDYLDLKNFELNLGEDFNISLDNLYYLEHKYEVSGFLRTYMPIGRSKIFGLFNEARLTYGYGTGKNSTGTGATYDGSYQTAQNLQIGIAPGMTAFITDWSAVEVSVGVMGFDFKWIDQKTNQIEEGHQRVSSGNFKINLFSINIGMTFYL | not soluble
MGSDKIHHHHHHASHYLLLGGSGWDKIAIVNKNTKEIEWEHPLEKGWECNSVAVTPDRNILFSYSKGAKLITRDHEEVWNISAPEGCEMQTARVLPNGNYLLAWCGYPATIMEVNAKGEILSKTDFDTHIEQPHAQFRQVNKNKQGNYLVPLFATSEIREISPSGQLLKSVKVDGNPFSVAALDNGNYLVACGDAHCFIELNFETGDIVRKVNENDIEGAQLFFVAQLLPKRDGGLYICNWQGHDGEAAKGHYPQLIEINGAGKMVWDLNDNATFGMISSICPID | not soluble
MGSDKIHHHHHHATPAEIPFDAVLAGQTPMLFKGLVRDWPLVQAGLGSPQAARDYIRAHDRGVPVVGYTGDPAIKGRFFYNDTLTGLNFKAERAPLEAFLGRIEAVEGQENAPAIYIGSTDLDAYFPSLKAENDLGLGPEVYGPQPPMAGIWLGNRTVAAAHYDMSNNIAVCAVGRRRFTLFPPDQVANLYPGPLEPTPGGQVVSMVDFETPDFDRHPRFREALASAQVAEMEPGDVLVYPALWWHQVEALDGFNVLMNYWWNATPAFVDTPMTTLLHGLLSLRDRPDFEKQGWKALFDYYVFGPAERAGAHLPDDARGPLGALDDLKARRLRAWLLDRLNR | not soluble
MGSDKIHHHHHHEHNRSAVTTEGGYYDTEKGFESLINSCYTPLRFWGGKSAAMAFSETGTDILAPGGGCDYPAIVSYQNDFDGTNPISKEYYDRFYKAINFCNTAIYHVKNVPFSDKTLTSKREAEVRFLRAYYYWILVETFGDTYYTDQPSESIVMAPRKTSVAEIYTHIFEDLDFCMDSRLSVAQADGGRVTMWAAKALKARLLLTRASELNDKALYEQAYTLAKEVIDNGPFELSKDFASVFDMENSDGNGNKEVIWYIDYSSTNQLYNQEMDNDIIRSGGNHTHLIFCMKYDDQPGMVRSIEYGRPFNHYMPTRYLLDCYDENIDQRFEVTFRSLWKANGGKTGDNYPYMVQGDTAIWITKDVVPQVKRQWAKGRYQILDRTDIYHEDGSVKSQKQCMPISKFEDPTRATVNEDRGTRDAFIIRVAEMYLIVAEAGAKAGKADALAYMNILRAQRAKAGKEEAMKVAQSDIEDIDFILDERARELVGEQLRWFDLKRMGSEIFIRRIKSGNPDAGKNVKAYHMLRPFPQTLLDAITNKDEFLQNEGYK | not soluble
MGSDKIHHHHHHENLYFQGMIKLIATDIDGTLVKDGSLLIDPEYMSVIDRLIDKGIIFVVCSGRQFSSEFKLFAPIKHKLLYITDGGTVVRTPKEILKTYPMDEDIWKGMCRMVRDELPACDYFAATPDFCFAEDGGSPIFHLLRDSYGFEMREVDDITRLDRNDIIKFTVFHPDKCEELCTPVFIPAWNKKAHLAAAGKEWVDCNAKGVSKWTALSYLIDRFDLLPDEVCCFGDNLNDIEMLQNAGISYAVSNARQEVIAAAKHTCAPYWENGVLSVLKSFL | soluble
